Experimental data taken from US20230079439A1, “Compositions and Methods for Enhancing Beta Cell Maturation, Health and Function” (THE REGENTS OF THE UNIVERSITY OF CALIFORNIA, priority 2016, published 2023).

Biological target: transcellular partners
Assay: cell-based or functional assay

**Q.** With “Soluble neuroligin-2 extracellular domain (receptor)” as the substance, how does the half-maximal inhibition of insulin secretion by rat islets (20 mM glucose) read?
**A.** Its half-maximal inhibition of insulin secretion by rat islets (20 mM glucose) is 9 nM.
